Reference: patent US20190359653A1, “SELECTIVE PEPTIDE INHIBITORS OF FRIZZLED” (Genentech, Inc., priority 2016, published 2019)

Key:
[1] = molecular target: T1, FZD7 CRD-Fc (Homo sapiens, UniProt O75084); assay: spot phage ELISA against FZD7 CRD-Fc; assay type: binding; settings: for SIGNAL: NOISE RATIO FZD7 CRD: spot phage ELISA signal against FZD7 CRD over ELISA signal against BSA, Tables 3 and 4; for FZD7 CRD-Fc phage-binding signal: signal minus noise (BSA); for FZD7 CRD-Fc phage-binding signal / FZD7 CRD-Fc S/N: shotgun scanning variants of Fz7-21, Table 5; for FZD7 CRD-Fc S/N: signal to noise ratio
T1 construct: hFZD7 CRD-Fc (cat no. 6178-FZ); purchased R&D systems 6178-FZ
Method: (§1) Phage pools of linear peptide libraries (Stanger, K. et al. Allosteric peptides bind a caspase zymogen and mediate caspase tetramerization. Nat Chem Biol 8, 655-660 (2012)) were cycled through rounds of binding selections with hFZD7 CRD-Fc following standard protocols (Tonikian et al. (2007) Nat Protoc 2, 1368-1386). Herceptin (10 μM) was included in sorting solution to block potential Fc binders during all rounds of sorting. After four rounds of binding selection, individual phage clones were analyzed in a high-throughput spot phage ELISA using plate-immobilized FZD7 CRD-Fc as target or off-target for specificity test (hFZD8 CRD-Fc and Herceptin). To measure off-target affinity, duplicate phage particle were assayed against BSA to measure non-specific binding. Clones with a phage-binding signal >0.5 and signal-to-noise ratio >10 were considered to be positive clones and were subjected to DNA sequence analysis. General data handling was done using Microsoft Excel 2010 unless otherwise noted.
(§2) In order to investigate the role of FZD7 in intestinal stem cell function, experiments were performed to identify ligands that selectively bind FZD7 CRD. A naïve linear peptide library (4-16 amino acids in length) and a cyclic peptide library were screened via phage display against FZD7 CRD-Fc. Peptides found to bind FZD7 CRD-Fc were then screened via spot phage ELISA against FZD7 CRD-Fc, FZD8 CRD-Fc, and Herceptin to identify candidates that bind FZD7 CRD but not FZD8 CRD or herceptin. The amino acid sequences of candidate FZD7 CRD-binding linear peptides are shown in Table 3 below, and the amino acid sequences of candidate FZD7 CRD-binding cyclic peptides are shown in Table 4.
(§3) Briefly, sixty Fz7-21-derived peptides (see Table 5), each containing at least one random alanine and/or valine/and/or aspartic acid and/or serine substitution, were generated and screened via spot phage ELISA (i.e., as described above) against FZD7 CRD-Fc and Herceptin.

[2] = system: Herceptin; assay: spot phage ELISA against Herceptin (off-target); assay type: binding; settings: for SIGNAL: NOISE RATIO HERCEPTIN: spot phage ELISA signal against Herceptin over ELISA signal against BSA, Tables 3 and 4; for HERCEPTIN S/W: signal minus noise (BSA); for HERCEPTIN S/W / HERCEPTIN S/N: Table 5; for HERCEPTIN S/N: signal to noise ratio
Method: as §1, §2, §3

[3] = molecular target: T2, FZD8 CRD-Fc (Homo sapiens, UniProt Q9H461); assay: spot phage ELISA against FZD8 CRD-Fc (off-target); assay type: binding; settings: spot phage ELISA signal against FZD 8 CRD over ELISA signal against BSA; Tables 3 and 4
T2 construct: hFZD8 CRD-Fc (cat no. 6129-FZ); purchased R&D systems 6129-FZ
T2 sequence (Q9H461 30-151 limits assumed): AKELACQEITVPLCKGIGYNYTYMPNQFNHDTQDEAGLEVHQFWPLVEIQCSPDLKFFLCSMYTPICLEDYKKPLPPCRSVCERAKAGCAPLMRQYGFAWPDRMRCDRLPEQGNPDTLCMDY
Method: as §1, §2

[4] = system: Rnf43^−/− and Znf3^−/− intestinal neoplasia in mice; settings: Koo et al. (2015); cited from earlier work

SIGNAL: NOISE RATIO FZD8 CRD [3]	FZD7 CRD-Fc phage-binding signal [1]	FZD7 CRD-Fc S/N [1]	Compound	SIGNAL: NOISE RATIO HERCEPTIN [2]	HERCEPTIN S/W [2]	HERCEPTIN S/N [2]	also measured
1.5	–	–	5 (PCSVICLPDWSSLLFI) [compound 5]	1.0	–	–	SIGNAL: NOISE RATIO FZD7 CRD [1]: 22.7
2.9	–	–	15 (FWMQLQDGFAIWFP) [compound 15]	1.7	–	–	–
1.1	–	–	16 (PCSVICLPDWSSLLFI) [compound 16]	1.1	–	–	SIGNAL: NOISE RATIO FZD7 CRD [1]: 5.0
–	3.2	60.5	40 (AASDDLEFWCHVMY) [compound 40]	–	0.0	1.4	–
–	3.0	59.6	41 (AASDDLEFWCHVMY) [compound 41]	–	0.0	1.3	–
–	0.1	2.8	94 (LPADDLEFWCHVMY) [compound 94]	–	0.0	1.2	–
–	–	–	Cc1cc(-c2ccc(CC(=O)Nc3ccc(-c4cccnc4)cc3)cc2)ccn1 [C59]	–	–	–	adverse effects on adjacent intestinal crypts [4]: no significant adverse effects; growth of intestinal neoplasia [4]: prevents the growth
